According to patent publication US20080233137A1 (published 2008):

Legend:
[1] = target: T1, WT-CHIPS (CHIPS 1-121), CHemotaxis Inhibitory Protein from Staphylococcus aureus (Staphylococcus aureus (strain Newman), UniProt A6QIG7 29-149); experiment: flow cytometry, 3 ug/ml CHIPS-FITC on HEK-293 cells expressing FLAG-tagged C5aR (pcDNA3.1)
T1 construct: mature

[2] = target: T1, WT-CHIPS (CHIPS 1-121), CHemotaxis …; experiment: flow cytometry, 3 ug/ml CHIPS-FITC on HEK-293 cells displaying the C5aR N-terminus (pDISPLAY)

Binder	binding result [1]	binding result [2]
FLAG-tagged complete human C5aR expressed on HEK293 cells (pcDNA3.1) (receptor, also called whole C5aR; complete C5aR) MDYKDDDDKNSFNYTTPDYGHYDDKDTLDLNTPVDKTSNTLRVPDILALVIFAVVFLVGVLGNALVVWVTAFEAKRTINAIWFLNLAVADFLSCLALPILFTSIVQHHHWPFGGAACSILPSLILLNMYASILLLATISADRFLLVFKPIWCQNFRGAGLAWIACAVAWGLALLLTIPSFLYRVVREEYFPPKVLCGVDYSHDKRRERAVAIVRLVLGFLWPLLTLTICYTFILLRTWSRRATRSTKTLKVVVAVVASFFIFWLPYQVTGIMMSFLEPSSPTFLLLNKLDSLCVSFAYINCCINPIIYVVAGQGFQGRLRKSLPSLLRNVLTEESVVRESKSFTRSTVDTMAQKTQAV	binds	
MNSFNYTTPDYGHYDDKDTLDLNTPVDKTSNTLRVPDI (receptor, domain: transmembrane domain; also called C5aR N-terminal protein; pDISPLAY C5aR N-terminal protein)		binds
